From PMC11257983 (2024) come the findings set out here.

B1: Flag-CNK^2–549 [Drosophila] / Myc-MEK [Drosophila] (parent)
chain 1: MSKNKLNLVLPPVNTEATVAAATVAPTPPFKTPSGTDTHSLLGKPKTSIDALTETLEGLDMGDTERKRIKMFLSQKEKIGELSDEDLEKLGELGSGNGGVVMKVRHTHTHLIMARKLIHLEVKPAIKKQILRELKVLHECNFPHIVGFYGAFYSDGEISICMEYMDGGSLDLILKRAGRIPESILGRITLAVLKGLSYLRDNHAIIHRDVKPSNILVNSSGEIKICDFGVSGQLIDSMANSFVGTRSYMSPERLQGTHYSVQSDIWSLGLSLVEMAIGMYPIPPPNTATLESIFADNAEESGQPTDEPRAMAIFELLDYIVNEPPPKLEHKIFSTEFKDFVDICLKKQPDERADLKTLLSHPWIRKAELEEVDISGWVCKTMDLPPSTPKRNTSPN
chain 2: AYINIAEWTPDQVTDWIKGLDESMKGYLYEFSKQEIGGRALLNIRPYELENLGMLRIGHQEIVLEAVENLRNFHYHLKNDNLQFMALHVATAAKNLHRELARNHAESTKIDTRILHDITRTIATLKPLVGSLERTPFRKQEMYREYCGNVLKCGLELATIAHRDRFALQPVPAIRQSAERLENLANFVIQDISDPMVLQPASLNLVTLKKRESELGFNIESSYNGIHRVTDIKYNSPAHNSGKIEDGDEIVQINYQTVVGWQHRTVLEHLREALPDVVLTVKKRPKHTKMFGQIYMQPYRLPSKKRNMAARWAAQMPSPRAAFLTLDTEQLATGGTGSAVPDPSKSLSSEKREVLTKANPVSSASDSDSSCSDIPTPTDPKLAAREIRLYYPKPRALLQRRNTICGCEYLSLKNSDLVVPSWHERKPGIGSPTNCDPGSPSIRDKSISFGYGLEMAARPTTCIGIAGDTSTDKARRMFHEARKLKQLTEDSQREFLVDRYKPGVSKVVRFDAKEDYVMKNEKFICNVENTILETFEPIPFADEGDEDA

Variants of B1 are the subject of one assay. Kind of assay: GST pull-down, immunoblot quantification. To be noted: with Myc-MEK [Drosophila]; S2 cells; GST-HYP + RRKM co-expressed; captured via GST-HYP; anti-Myc (MEK) blot; parent: 1.
With chain 2 AYINIAEWTPDQVTDWIKGLDESMKGYLYEFSKQEIGGRALLNIRPYELENLGMLRIGHQEIVLEFVENLRNFHYHLKNDNLQFMALHVATAAKNLHRELARNHAESTKIDTRILHDITRTIATLKPLVGSLERTPFRKQEMYREYCGNVLKCGLELATIAHRDRFALQPVPAIRQSAERLENLANFVIQDISDPMVLQPASLNLVTLKKRESELGFNIESSYNGIHRVTDIKYNSPAHNSGKIEDGDEIVQINYQTVVGWQHRTVLEHLREALPDVVLTVKKRPKHTKMFGQIYMQPYRLPSKKRNMAARWAAQMPSPRAAFLTLDTEQLATGGTGSAVPDPSKSLSSEKREVLTKANPVSSASDSDSSCSDIPTPTDPKLAAREIRLYYPKPRALLQRRNTICGCEYLSLKNSDLVVPSWHERKPGIGSPTNCDPGSPSIRDKSISFGYGLEMAARPTTCIGIAGDTSTDKARRMFHEARKLKQLTEDSQREFLVDRYKPGVSKVVRFDAKEDYVMKNEKFICNVENTILETFEPIPFADEGDEDA [chain 2 A66F], the ratio to parent is 1.08.
As for chain 2 AYINIAEWTPDQVTDWIKGLDESMKGYLYEFSKQEIGGRALLNIRPYELENLGMLRIGHQEIVLEAVENLRNFHYHLKNDNLQFMALHVATAAKNLHRELARNHAESTKIDTRILHDITRTIATLKPLVGSLERTPFRKQEMYREYCGNVLKCGLELATIAHRDRFALQPVPAIRQSAERLENLANFVIQDISDPMVLQPASLNLVTLKKRESELGFNIESSYNGIHRVTDIKYNSPAHNSGKIEDGDRIVQINYQTVVGWQHRTVLEHLREALPDVVLTVKKRPKHTKMFGQIYMQPYRLPSKKRNMAARWAAQMPSPRAAFLTLDTEQLATGGTGSAVPDPSKSLSSEKREVLTKANPVSSASDSDSSCSDIPTPTDPKLAAREIRLYYPKPRALLQRRNTICGCEYLSLKNSDLVVPSWHERKPGIGSPTNCDPGSPSIRDKSISFGYGLEMAARPTTCIGIAGDTSTDKARRMFHEARKLKQLTEDSQREFLVDRYKPGVSKVVRFDAKEDYVMKNEKFICNVENTILETFEPIPFADEGDEDA [chain 2 E249R], the ratio to parent was determined as 0.76.
Regarding chain 2 AYINIAEWTPDQVTDWIKGLDESMKGYLYEFSKQEIGGRALLNIRPYELENLGMLRIGHQEIVLEAVENLRNFHYHLKNRNLQFMALHVATAAKNLHRELARNHAESTKIDTRILHDITRTIATLKPLVGSLERTPFRKQEMYREYCGNVLKCGLELATIAHRDRFALQPVPAIRQSAERLENLANFVIQDISDPMVLQPASLNLVTLKKRESELGFNIESSYNGIHRVTDIKYNSPAHNSGKIEDGDEIVQINYQTVVGWQHRTVLEHLREALPDVVLTVDKRPKHTKMFGQIYMQPYRLPSKKRNMAARWAAQMPSPRAAFLTLDTEQLATGGTGSAVPDPSKSLSSEKREVLTKANPVSSASDSDSSCSDIPTPTDPKLAAREIRLYYPKPRALLQRRNTICGCEYLSLKNSDLVVPSWHERKPGIGSPTNCDPGSPSIRDKSISFGYGLEMAARPTTCIGIAGDTSTDKARRMFHEARKLKQLTEDSQREFLVDRYKPGVSKVVRFDAKEDYVMKNEKFICNVENTILETFEPIPFADEGDEDA [chain 2 D80R K282D], the ratio to parent was 0.34.
Turning to chain 2 AYINIAEWTPDQVTDWIKGLDESMKGYLYEFSKQEIGGRALLNIRPYELENLGMLRIGHQEIVLEAVENLRNFHYHLKNRNLQFMALHVATAAKNLHRELARNHAESTKIDTRILHDITRTIATLKPLVGSLERTPFRKQEMYREYCGNVLKCGLELATIAHRDRFALQPVPAIRQSAERLENLANFVIQDISDPMVLQPASLNLVTLKKRESELGFNIESSYNGIHRVTDIKYNSPAHNSGKIEDGDEIVQINYQTVVGWQHRTVLEHLREALPDVVLTVKKRPKHTKMFGQIYMQPYRLPSKKRNMAARWAAQMPSPRAAFLTLDTEQLATGGTGSAVPDPSKSLSSEKREVLTKANPVSSASDSDSSCSDIPTPTDPKLAAREIRLYYPKPRALLQRRNTICGCEYLSLKNSDLVVPSWHERKPGIGSPTNCDPGSPSIRDKSISFGYGLEMAARPTTCIGIAGDTSTDKARRMFHEARKLKQLTEDSQREFLVDRYKPGVSKVVRFDAKEDYVMKNEKFICNVENTILETFEPIPFADEGDEDA [chain 2 D80R], the ratio to parent was determined as 0.9.

Still in this assay, the particulars now being: with Myc-MEK [Drosophila]; S2 cells; GST-HYP + RRKM (Ha-RASV12, Pyo-RAF, V5-KSR, Myc-MEK) co-expressed; captured via GST-HYP; anti-MEK blot; parent: 1.
As to chain 2 AYINIAEWTPDQVTDWIKGLDESMKGYLYEFSKQEIGGRALLNIRPYELENLGMLRIGHQEIVLEAVENLRNFHYHLKNDNLQFMALHVATAAKNLHRELARNHAESTKIDTRILHDITRTIATLKPLVGSLERTPFRKQEMYREYCGNVLKCGLELATIAHRDRFALQPVPAIRQSAERLENLANFVIQDIADPMVLQPASLNLVTLKKRESELGFNIESSYNGIHRVTDIKYNSPAHNSGKIEDGDEIVQINYQTVVGWQHRTVLEHLREALPDVVLTVKKRPKHTKMFGQIYMQPYRLPSKKRNMAARWAAQMPSPRAAFLTLDTEQLATGGTGSAVPDPSKSLSSEKREVLTKANPVSSASDSDSSCSDIPTPTDPKLAAREIRLYYPKPRALLQRRNTICGCEYLSLKNSDLVVPSWHERKPGIGSPTNCDPGSPSIRDKSISFGYGLEMAARPTTCIGIAGDTSTDKARRMFHEARKLKQLTEDSQREFLVDRYKPGVSKVVRFDAKEDYVMKNEKFICNVENTILETFEPIPFADEGDEDA [chain 2 S193A], the ratio to parent is 1.01.

The same assay, now with this note: with Myc-MEK [Drosophila]; S2 cells; GST-HYP, V5-KSR, Myc-MEK co-expressed; captured via GST-HYP; anti-MEK blot; parent: 1.
Turning to chain 2 AYINIAEWTPDQVTDWIKGLDESMKGYLYEFSKQEIGGRALLNIRPYELENLGMLRIGHQEIVLEAVENLRNFHYHLKNDNLQFMALHVATAAKNLHRELARNHAESTKIDTRILHDITRTIATLKPLVGSLERTPFRKQEMYREYCGNVLKCGLELATIAHRDRFALQPVPAIRQSAERLENLANFVIQDIADPMVLQPASLNLVTLKKRESELGFNIESSYNGIHRVTDIKYNSPAHNSGKIEDGDEIVQINYQTVVGWQHRTVLEHLREALPDVVLTVKKRPKHTKMFGQIYMQPYRLPSKKRNMAARWAAQMPSPRAAFLTLDTEQLATGGTGSAVPDPSKSLSSEKREVLTKANPVSSASDSDSSCSDIPTPTDPKLAAREIRLYYPKPRALLQRRNTICGCEYLSLKNSDLVVPSWHERKPGIGSPTNCDPGSPSIRDKSISFGYGLEMAARPTTCIGIAGDTSTDKARRMFHEARKLKQLTEDSQREFLVDRYKPGVSKVVRFDAKEDYVMKNEKFICNVENTILETFEPIPFADEGDEDA [chain 2 S193A], the ratio to parent was found to be 1.09.
